Data set [1] concerns the target T1, human guanylate-binding protein 1 (hGBP1), full-length (human, UniProt P32455 1-592, NT-647-NHS label (in the MST assay only)).
T1 construct: full-length in the crystallized complex; in MST it was fluorescently labelled (NT-647-NHS) and no nucleotide is mentioned
T1 sequence (looked up): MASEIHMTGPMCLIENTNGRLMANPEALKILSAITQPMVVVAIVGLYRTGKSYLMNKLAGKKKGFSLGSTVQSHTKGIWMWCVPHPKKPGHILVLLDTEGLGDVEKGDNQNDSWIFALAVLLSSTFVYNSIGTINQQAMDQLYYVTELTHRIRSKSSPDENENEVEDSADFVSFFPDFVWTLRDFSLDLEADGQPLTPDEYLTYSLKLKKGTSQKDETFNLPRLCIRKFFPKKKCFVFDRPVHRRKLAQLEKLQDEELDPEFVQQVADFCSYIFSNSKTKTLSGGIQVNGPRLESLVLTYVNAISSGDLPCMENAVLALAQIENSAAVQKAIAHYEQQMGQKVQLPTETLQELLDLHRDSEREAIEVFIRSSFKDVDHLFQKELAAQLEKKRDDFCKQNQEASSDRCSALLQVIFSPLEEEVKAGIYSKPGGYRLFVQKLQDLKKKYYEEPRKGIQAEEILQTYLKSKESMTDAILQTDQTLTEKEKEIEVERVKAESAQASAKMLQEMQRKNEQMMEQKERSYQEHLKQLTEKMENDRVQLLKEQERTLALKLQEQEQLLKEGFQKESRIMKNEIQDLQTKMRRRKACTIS
In words: crystal structure; 0.3 mM IpaH9.8^LRR (22–244) mixed with 0.3 mM full-length hGBP1 and 5 mM GDP; 3.5 M NaCl, 0.1 M sodium citrate pH 6.5, 20 °C; space group P6122, one heterodimer in the asymmetric unit. Conditions: both partners purified.

Data set [2] deals with the molecule itself. In words: native gel or EMSA; Native-PAGE of IpaH9.8 and IpaH9.8-C337A under reducing and non-reducing conditions. (A gel shift assay detects complexes by their altered migration in electrophoresis.)
In data set [3] the target is T1, human guanylate-binding protein 1 …. In words: MST; 75 nM NT-647-NHS-labeled hGBP1 in PBS pH 7.4; IpaH9.8 titrated in, 30 min at room temperature; Monolith NT.Automated. Conditions: both partners purified.

Results on four molecules are retold here after paper PMC7728815, “Substrate-binding destabilizes the hydrophobic cluster to relieve the autoinhibition of bacterial ubiquitin ligase IpaH9.8” (Communications Biology, 2020).

B1: IpaH9.8^LRR (22–244), LRR domain of IpaH9.8 (domain or fragment)
chain: TYADYFSAWDKWEKQALPGEERDEAVSRLKECLINNSDELRLDRLNLSSLPDNLPAQITLLNVSYNQLTNLPELPVTLKKLYSASNKLSELPVLPPALESLQVQHNELENLPALPDSLLTMNISYNEIVSLPSLPQALKNLRATRNFLTELPAFSEGNNPVVREYFFDRNQISHIPESILNLRNECSIHISDNPLSSHALPALQRLTSSPDYHGPRIYFSMSD
notes: Leucine-rich repeat domain of IpaH9.8 of S. flexneri, residues 22–244 as crystallized (the plasmid section says 21–244); Plasmids section gives 21–244, crystallization section 22–244; also called IpaH9.8 LRR domain; IpaH9.8^LRR-Sub
As to B1, the binding result in data set [1] was “binds”.

B2: IpaH9.8 (wild type, Shigella flexneri) (enzyme)
chain: MLPINNNFSLPQNSFYNTISGTYADYFSAWDKWEKQALPGEERDEAVSRLKECLINNSDELRLDRLNLSSLPDNLPAQITLLNVSYNQLTNLPELPVTLKKLYSASNKLSELPVLPPALESLQVQHNELENLPALPDSLLTMNISYNEIVSLPSLPQALKNLRATRNFLTELPAFSEGNNPVVREYFFDRNQISHIPESILNLRNECSIHISDNPLSSHALPALQRLTSSPDYHGPRIYFSMSDGQQNTLHRPLADAVTAWFPENKQSDVSQIWHAFEHEEHANTFSAFLDRLSDTVSARNTSGFREQVAAWLEKLSASAELRQQSFAVAADATESCEDRVALTWNNLRKTLLVHQASEGLFDNDTGALLSLGREMFRLEILEDIARDKVRTLHFVDEIEVYLAFQTMLAEKLQLSTAVKEMRFYGVSGVTANDLRTAEAMVRSREENEFTDWFSLWGPWHAVLKRTEADRWAQAEEQKYEMLENEYPQRVADRLKASGLSGDADAEREAGAQVMRETEQQIYRQLTDEVLALRLPENGSQLHHS
notes: IpaH9.8, bacterial E3 ubiquitin ligase of S. flexneri; the wild-type gene was synthesised and cloned as 'IpaH9.8' into pET28M; No tag cleavage is described although the vector has a TEV site; also called IpaH9.8-WT; wild-type IpaH9.8
Consider B2, for which the binding result in data set [2] and in data set [3] was “binds” throughout.

B3: IpaH9.8-C337A (enzyme)
chain: MLPINNNFSLPQNSFYNTISGTYADYFSAWDKWEKQALPGEERDEAVSRLKECLINNSDELRLDRLNLSSLPDNLPAQITLLNVSYNQLTNLPELPVTLKKLYSASNKLSELPVLPPALESLQVQHNELENLPALPDSLLTMNISYNEIVSLPSLPQALKNLRATRNFLTELPAFSEGNNPVVREYFFDRNQISHIPESILNLRNECSIHISDNPLSSHALPALQRLTSSPDYHGPRIYFSMSDGQQNTLHRPLADAVTAWFPENKQSDVSQIWHAFEHEEHANTFSAFLDRLSDTVSARNTSGFREQVAAWLEKLSASAELRQQSFAVAADATESAEDRVALTWNNLRKTLLVHQASEGLFDNDTGALLSLGREMFRLEILEDIARDKVRTLHFVDEIEVYLAFQTMLAEKLQLSTAVKEMRFYGVSGVTANDLRTAEAMVRSREENEFTDWFSLWGPWHAVLKRTEADRWAQAEEQKYEMLENEYPQRVADRLKASGLSGDADAEREAGAQVMRETEQQIYRQLTDEVLALRLPENGSQLHHS
notes: IpaH9.8 of S. flexneri with the active cysteine changed (C337A); mutants made by PCR-based mutagenesis; likely the same as m1
Consider B3, for which the binding result in data set [2] is given as “binds”.

B4: IpaH9.8-R166A (enzyme)
chain: MLPINNNFSLPQNSFYNTISGTYADYFSAWDKWEKQALPGEERDEAVSRLKECLINNSDELRLDRLNLSSLPDNLPAQITLLNVSYNQLTNLPELPVTLKKLYSASNKLSELPVLPPALESLQVQHNELENLPALPDSLLTMNISYNEIVSLPSLPQALKNLRATANFLTELPAFSEGNNPVVREYFFDRNQISHIPESILNLRNECSIHISDNPLSSHALPALQRLTSSPDYHGPRIYFSMSDGQQNTLHRPLADAVTAWFPENKQSDVSQIWHAFEHEEHANTFSAFLDRLSDTVSARNTSGFREQVAAWLEKLSASAELRQQSFAVAADATESCEDRVALTWNNLRKTLLVHQASEGLFDNDTGALLSLGREMFRLEILEDIARDKVRTLHFVDEIEVYLAFQTMLAEKLQLSTAVKEMRFYGVSGVTANDLRTAEAMVRSREENEFTDWFSLWGPWHAVLKRTEADRWAQAEEQKYEMLENEYPQRVADRLKASGLSGDADAEREAGAQVMRETEQQIYRQLTDEVLALRLPENGSQLHHS
notes: IpaH9.8 of S. flexneri with Arg166 changed to alanine; mutants made by PCR-based mutagenesis; likely the same as m1; also called IpaH9.8 mutant R166A
With B4, in data set [3], the binding result was “binds”.
